Bridge positions count the residues as written; N and C are the ends. Ends that are not written are not given here.
What was measured:
[1] = target: T1, human monoamine oxidase A (human, UniProt P21397 1-527, limits assumed); assay: cell-based or functional assay
T1 sequence (looked up): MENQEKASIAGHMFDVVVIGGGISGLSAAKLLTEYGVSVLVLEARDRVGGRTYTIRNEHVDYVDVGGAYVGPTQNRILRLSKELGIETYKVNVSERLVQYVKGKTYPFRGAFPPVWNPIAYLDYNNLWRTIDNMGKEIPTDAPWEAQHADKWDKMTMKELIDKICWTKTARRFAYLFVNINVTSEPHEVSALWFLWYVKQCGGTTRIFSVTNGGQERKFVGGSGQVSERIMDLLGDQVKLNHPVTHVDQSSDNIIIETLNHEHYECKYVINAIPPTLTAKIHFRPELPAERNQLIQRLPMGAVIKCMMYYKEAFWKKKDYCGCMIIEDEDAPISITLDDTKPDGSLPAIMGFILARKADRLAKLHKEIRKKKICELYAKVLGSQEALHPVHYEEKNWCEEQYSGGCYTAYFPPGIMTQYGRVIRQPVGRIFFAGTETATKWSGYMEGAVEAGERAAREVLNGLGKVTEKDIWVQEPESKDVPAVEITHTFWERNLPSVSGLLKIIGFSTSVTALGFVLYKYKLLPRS

[2] = target: T2, human monoamine oxidase B (human, UniProt P27338 1-520, limits assumed); assay: cell-based or functional assay
T2 sequence (looked up): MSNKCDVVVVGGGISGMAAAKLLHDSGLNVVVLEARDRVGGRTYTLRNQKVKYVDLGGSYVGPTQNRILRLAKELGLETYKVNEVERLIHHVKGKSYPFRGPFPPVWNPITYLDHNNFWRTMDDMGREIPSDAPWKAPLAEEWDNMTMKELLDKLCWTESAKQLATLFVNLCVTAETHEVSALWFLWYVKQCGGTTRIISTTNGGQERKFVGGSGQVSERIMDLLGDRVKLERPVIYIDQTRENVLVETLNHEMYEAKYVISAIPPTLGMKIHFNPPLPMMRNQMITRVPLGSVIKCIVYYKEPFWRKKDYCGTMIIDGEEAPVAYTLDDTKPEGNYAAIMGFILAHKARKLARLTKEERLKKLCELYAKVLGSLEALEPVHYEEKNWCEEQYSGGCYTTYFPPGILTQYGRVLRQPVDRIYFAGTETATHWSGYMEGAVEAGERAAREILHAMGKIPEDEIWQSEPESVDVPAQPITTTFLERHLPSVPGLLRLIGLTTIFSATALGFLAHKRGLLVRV

IC50 (inhibition of MAO-A) [1]: > 100 µM | IC50 (inhibition of MAO-B) [2]: > 100 µM
B1: [Met]^4 H3 (1-21)-NH2 cyclic peptide 11, lactam bridge between Lys5 and Glu10 (peptide)
peptide: ARTMKTARKETGGKAPRKQLA-NH2
modifications: lactam 5-10
